Data: paper PMC2141769

Key:
[1] = molecular target: EC0, mutant E-cadherin protein that completely lacks the cytoplasmic domain; assay: cross-linking
[2] = molecular target: EΔC37, mutant E-cadherin polypeptide with COOH-terminal deletion of 37 amino acid residues; assay: co-IP
[3] = molecular target: EΔC71, mutant E-cadherin polypeptide with COOH-terminal deletion of 71 amino acid residues; assay: co-IP

EC0, mutant E-cadherin protein that completely lacks the cytoplasmic domain, sequence (P09803 152-704, stated change not applied): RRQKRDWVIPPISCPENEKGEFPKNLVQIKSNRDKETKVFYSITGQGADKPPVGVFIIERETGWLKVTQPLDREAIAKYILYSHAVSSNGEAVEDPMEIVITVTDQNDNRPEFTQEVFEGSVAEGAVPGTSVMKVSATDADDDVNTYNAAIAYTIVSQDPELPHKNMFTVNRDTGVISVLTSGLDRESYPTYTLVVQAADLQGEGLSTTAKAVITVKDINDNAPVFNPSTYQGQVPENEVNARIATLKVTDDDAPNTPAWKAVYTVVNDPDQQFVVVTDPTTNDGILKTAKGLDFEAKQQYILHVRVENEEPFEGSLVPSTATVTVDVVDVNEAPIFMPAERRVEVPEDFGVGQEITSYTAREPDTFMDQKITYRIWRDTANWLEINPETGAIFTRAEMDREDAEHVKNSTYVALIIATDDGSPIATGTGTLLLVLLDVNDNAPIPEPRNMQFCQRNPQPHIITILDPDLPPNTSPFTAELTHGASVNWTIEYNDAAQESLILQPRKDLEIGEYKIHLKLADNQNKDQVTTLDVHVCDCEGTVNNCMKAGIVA

| Molecule | stoichiometry N [1] | amount of p120 coprecipitated, percent of EK cells [2] [%] | amount of p120 coprecipitated, percent of EK cells [3] [%] |
| --- | --- | --- | --- |
| EC0, mutant E-cadherin protein that completely lacks the cytoplasmic domain (domain or fragment) | 2 |  |  |
| p120 (natural protein) MDDSEVESTASILASVKEQEAQFEKLTRALEEERRHVSAQLERVRVSPQDANPLMANGTLTRRHQNGRFVGDADLERQKFSDLKLNGPQDHSHLLYSTIPRMQEPGQIVETYTEEDPEGAMSVVSVETSDDGTTRRTETTVKKVVKTVTTRTVQPVAMGPDGLPVDASSVSNNYIQTLGRDFRKNGNGGPGPYVGQAGTATLPRNFHYPPDGYSRHYEDGYPGGSDNYGSLSRVTRIEERYRPSMEGYRAPSRQDVYGPQPQVRVGGSSVDLHRFHPEPYGLEDDQRSMGYDDLDYGMMSDYGTARRTGTPSDPRRRLRSYEDMIGEEVPSDQYYWAPLAQHERGSLASLDSLRKGGPPPPNWRQPELPEVIAMLGFRLDAVKSNAAAYLQHLCYRNDKVKTDVRKLKGIPVLVGLLDHPKKEVHLGACGALKNISFGRDQDNKIAIKNCDGVPALVRLLRKARDMDLTEVITGTLWNLSSHDSIKMEIVDHALHALTDEVIIPHSGWEREPNEDCKPRHIEWESVLTNTAGCLRNVSSERSEARRKLRECDGLVDALIFIVQAEIGQKDSDSKLVENCVCLLRNLSYQVHREIPQAERYQEAAPNVANNTGPHAASCFGAKKGKDEWFSRGKKPIEDPANDTVDFPKRTSPARGYELLFQPEVVRIYISLLKESKTPAILEASAGAIQNLCAGRWTYGRYIRSALRQEKALSAIADLLTNEHERVVKAASGALRNLAVDARNKELIGKHAIPNLVKNLPGGQQNSSWNFSEDTVISILNTINEVIAENLEAAKKLRETQGIEKLVLINKSGNRSEKEVRAAALVLQTIWGYKELRKPLEKEGWKKSDFQVNLNNASRSQSSHSYDDSTLPLIDRNQKSDKKPDREEIQMSNMGSNTKSLDNNYSTPNERGDHNRTLDRSGDLGDMEPLKGTTPLMQDEGQESLEEELDVLVLDDEGGQVSYPSMQKI |  | 10 | 10 |
